In IntAct's records for PubMed 19759014:

B1: Zinc transporter 6 (Homo sapiens), Q6NXT4 (parent)
chain: MGTIHLFRKPQRSFFGKLLREFRLVAADRRSWKILLFGVINLICTGFLLMWCSSTNSIALTAYTYLTIFDLFSLMTCLISYWVTLRKPSPVYSFGFERLEVLAVFASTVLAQLGALFILKESAERFLEQPEIHTGRLLVGTFVALCFNLFTMLSIRNKPFAYVSEAASTSWLQEHVADLSRSLCGIIPGLSSIFLPRMNPFVLIDLAGAFALCITYMLIEINNYFAVDTASAIAIALMTFGTMYPMSVYSGKVLLQTTPPHVIGQLDKLIREVSTLDGVLEVRNEHFWTLGFGSLAGSVHVRIRRDANEQMVLAHVTNRLYTLVSTLTVQIFKDDWIRPALLSGPVAANVLNFSDHHVIPMPLLKGTDDLNPVTSTPAKPSSPPPEFSFNTPGKNVNPVILLNTQTRPYGFGLNHGHTPYSSMLNQGLGVPGIGATQGLRTGFTNIPSRYGTNNRIGQPRP

Variants of: B1
Details: with znt5_human SLC30A5, Q8TAD4
znt5_human SLC30A5, Q8TAD4, sequence (Q8TAD4 whole entry): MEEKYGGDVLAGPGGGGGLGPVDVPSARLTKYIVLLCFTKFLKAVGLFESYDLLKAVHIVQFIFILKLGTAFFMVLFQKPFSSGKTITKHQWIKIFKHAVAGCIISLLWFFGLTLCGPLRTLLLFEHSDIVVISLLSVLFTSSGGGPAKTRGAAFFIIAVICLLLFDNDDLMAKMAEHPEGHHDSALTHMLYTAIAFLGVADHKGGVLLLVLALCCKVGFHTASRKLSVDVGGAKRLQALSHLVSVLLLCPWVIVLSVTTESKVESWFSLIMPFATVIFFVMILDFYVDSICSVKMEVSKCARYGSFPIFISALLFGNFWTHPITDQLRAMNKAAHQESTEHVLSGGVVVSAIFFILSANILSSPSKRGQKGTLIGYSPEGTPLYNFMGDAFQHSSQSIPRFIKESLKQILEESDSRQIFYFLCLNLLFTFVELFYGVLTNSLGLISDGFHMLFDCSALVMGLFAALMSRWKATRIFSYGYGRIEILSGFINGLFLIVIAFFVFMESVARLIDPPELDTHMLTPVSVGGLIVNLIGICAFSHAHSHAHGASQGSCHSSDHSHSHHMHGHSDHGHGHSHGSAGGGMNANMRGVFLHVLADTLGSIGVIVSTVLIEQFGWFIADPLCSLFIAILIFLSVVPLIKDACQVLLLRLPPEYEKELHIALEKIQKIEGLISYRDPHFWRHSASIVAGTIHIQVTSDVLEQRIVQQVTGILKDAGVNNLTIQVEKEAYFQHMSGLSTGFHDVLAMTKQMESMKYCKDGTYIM

Variant | effect of a mutation on the interaction
MGTIHLFRKPQRSFFGKLLREFRLVAADRRSWKILLFGVINLICTGFLLMWCSSTNSIALTAYTYHTIFDLFSLMTCLISYWVTLRKPSPVYSFGFERLEVLAVFASTVLAQLGALFILKESAERFLEQPEIHTGRLLVGTFVALCFNLFTMLSIRNKPFAYVSEAASTSWLQEHVADLSRSLCGIIPGLSSIFLPRMNPHVLIDLAGAFALCITYMLIEINNYFAVDTASAIAIALMTFGTMYPMSVYSGKVLLQTTPPHVIGQLDKLIREVSTLDGVLEVRNEHFWTLGFGSLAGSVHVRIRRDANEQMVLAHVTNRLYTLVSTLTVQIFKDDWIRPALLSGPVAANVLNFSDHHVIPMPLLKGTDDLNPVTSTPAKPSSPPPEFSFNTPGKNVNPVILLNTQTRPYGFGLNHGHTPYSSMLNQGLGVPGIGATQGLRTGFTNIPSRYGTNNRIGQPRP [L66H;F201H] | with no effect
MGTIHLFRKPQRSFFGKLLREFRLVAADRRSWKILLFGVINLICTGFLLMWCSSTNSIALTAYTYLTIFALFSLMTCLISYWVTLRKPSPVYSFGFERLEVLAVFASTVLAQLGALFILKESAERFLEQPEIHTGRLLVGTFVALCFNLFTMLSIRNKPFAYVSEAASTSWLQEHVADLSRSLCGIIPGLSSIFLPRMNPFVLIALAGAFALCITYMLIEINNYFAVDTASAIAIALMTFGTMYPMSVYSGKVLLQTTPPHVIGQLDKLIREVSTLDGVLEVRNEHFWTLGFGSLAGSVHVRIRRDANEQMVLAHVTNRLYTLVSTLTVQIFKDDWIRPALLSGPVAANVLNFSDHHVIPMPLLKGTDDLNPVTSTPAKPSSPPPEFSFNTPGKNVNPVILLNTQTRPYGFGLNHGHTPYSSMLNQGLGVPGIGATQGLRTGFTNIPSRYGTNNRIGQPRP [D70A;D205A] | with no effect
